Measurements: article PMC9335864

Biological target: N-terminal Nanoluciferase-tagged p97-N domain (human)
Experiment: FRET or BRET; NanoBRET in p47-knockout U2OS cells: Nanoluciferase-p97-N donor, p47-UBX-HaloTag acceptor, co-transfected with antibody-fragment or p47-FLAG plasmids; compared with scFv-RNase and scFab-RNase controls

N-terminal Nanoluciferase-tagged p97-N domain (human), sequence (P55072 2-806): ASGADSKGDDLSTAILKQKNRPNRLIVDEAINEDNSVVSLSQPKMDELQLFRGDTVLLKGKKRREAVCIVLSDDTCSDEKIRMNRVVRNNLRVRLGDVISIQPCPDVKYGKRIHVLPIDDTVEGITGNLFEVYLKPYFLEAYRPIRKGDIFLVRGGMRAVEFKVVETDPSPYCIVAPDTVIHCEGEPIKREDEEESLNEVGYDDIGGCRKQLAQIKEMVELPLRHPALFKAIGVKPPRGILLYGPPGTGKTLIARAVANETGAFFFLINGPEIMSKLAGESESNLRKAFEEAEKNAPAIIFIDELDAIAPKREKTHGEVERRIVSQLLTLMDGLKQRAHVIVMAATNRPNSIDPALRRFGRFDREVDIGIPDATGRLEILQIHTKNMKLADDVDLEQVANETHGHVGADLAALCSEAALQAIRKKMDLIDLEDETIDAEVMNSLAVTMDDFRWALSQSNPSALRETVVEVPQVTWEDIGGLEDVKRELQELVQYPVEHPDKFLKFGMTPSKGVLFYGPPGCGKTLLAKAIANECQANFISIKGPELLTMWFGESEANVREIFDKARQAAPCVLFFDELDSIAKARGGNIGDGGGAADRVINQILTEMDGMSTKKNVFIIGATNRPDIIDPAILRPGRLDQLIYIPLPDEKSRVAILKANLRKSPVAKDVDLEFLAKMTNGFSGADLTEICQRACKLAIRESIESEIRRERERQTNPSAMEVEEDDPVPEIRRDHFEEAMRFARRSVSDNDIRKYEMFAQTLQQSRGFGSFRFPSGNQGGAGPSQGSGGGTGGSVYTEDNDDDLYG

- reduction of the BRET ratio of the p97-N/p47-UBX pair: 15%
B1: p47-FLAG (natural protein)
chain: MAAERQEALREFVAVTGAEEDRARFFLESAGWDLQIALASFYEDGGDEDIVTISQATPSSVSRGTAPSDNRVTSFRDLIHDQDEDEEEEEGQRFYAGGSERSGQQIVGPPRKKSPNELVDDLFKGAKEHGAVAVERVTKSPGETSKPRPFAGGGYRLGAAPEEESAYVAGEKRQHSSQDVHVVLKLWKSGFSLDNGELRSYQDPSNAQFLESIRRGEVPAELRRLAHGGQVNLDMEDHRDEDFVKPKGAFKAFTGEGQKLGSTAPQVLSTSSPAQQAENEAKASSSILIDESEPTTNIQIRLADGGRLVQKFNHSHRISDIRLFIVDARPAMAATSFILMTTFPNKELADESQTLKEANLLNAVIVQRLT
